Measured values reported in article PMC5264588, “ER residency of the ceramide phosphoethanolamine synthase SMSr relies on homotypic oligomerization mediated by its SAM domain” (Scientific Reports, 2017).
Changes are numbered by the printed parent chain. In names and notes the source's numbering stands. Several values for one entry are separate records, joined by “and”; a condition that tells them apart may be missing. Equal entries are not always repeated.

B1: V5/His6-tagged SMSr (enzyme, human, UniProt Q96LT4 1-415, looked up)
chain: MAGPNQLCIRRWTTKHVAVWLKDEGFFEYVDILCNKHRLDGITLLTLTEYDLRSPPLEIKVLGDIKRLMLSVRKLQKIHIDVLEEMGYNSDSPMGSMTPFISALQSTDWLCNGELSHDCDGPITDLNSDQYQYMNGKNKHSVRRLDPEYWKTILSCIYVFIVFGFTSFIMVIVHERVPDMQTYPPLPDIFLDSVPRIPWAFAMTEVCGMILCYIWLLVLLLHKHRSILLRRLCSLMGTVFLLRCFTMFVTSLSVPGQHLQCTGKIYGSVWEKLHRAFAIWSGFGMTLTGVHTCGDYMFSGHTVVLTMLNFFVTEYTPRSWNFLHTLSWVLNLFGIFFILAAHEHYSIDVFIAFYITTRLFLYYHTLANTRAYQQSRRARIWFPMFSFFECNVNGTVPNEYCWPFSKPAIMKRLIG
notes: SMSr (SAMD8), ceramide phosphoethanolamine synthase, human, UniProt Q96LT4; the cDNA was PCR amplified and cloned with a C-terminal V5/His6 tag; also called SMSr-V5; SAMD8; source: HeLa, transfected (pcDNA3.1/V5-His TOPO), in detergent extract; not shown: V5, C-terminal, kept; His6, C-terminal, kept
B2: HA-tagged SMSr^L62E/G63D/K66E (SMSr^OD) (enzyme, human, UniProt Q96LT4 1-415, looked up)
chain: B1 chain with L62E, G63D, K66E
notes: SMSr (SAMD8), human, UniProt Q96LT4, with L62E, G63D and K66E; also called oligomerization-defective triple mutant; source: HeLa (wild-type or SMSr-/-), transfected, in detergent extract; not shown: HA, C-terminal, kept
B3: V5/His6-tagged SMSr expressed in yeast (enzyme, human, UniProt Q96LT4 1-415, looked up)
chain: B1 chain
notes: SMSr (SAMD8), human, UniProt Q96LT4; also called SMSr-V5; pYES2.1/SMSr-V5-His TOPO; source: Saccharomyces cerevisiae IAY11, transformed (pYES2.1/SMSr-V5-His TOPO), in lysate
B4: HA-tagged SMSr^D348E (enzyme, human, UniProt Q96LT4 1-415, looked up)
chain: B1 chain with D348E
notes: SMSr (SAMD8), human, UniProt Q96LT4, with D348E; also called enzyme-dead SMSr; source: SMSr-/- HeLa, transfected, in detergent extract; not shown: HA, C-terminal, kept
B5: HA-tagged SMSr (enzyme, human, UniProt Q96LT4 1-415, looked up)
chain: B1 chain
notes: SMSr (SAMD8), ceramide phosphoethanolamine synthase, human, UniProt Q96LT4; also called SMSr-HA; full-length SMSr-HA; source: HeLa (wild-type or SMSr-/-), transfected, in detergent extract; not shown: HA, C-terminal, kept
B6: V5/His6-tagged SMSrΔSAM (domain or fragment, human, UniProt Q96LT4 79-415, looked up)
chain: HIDVLEEMGYNSDSPMGSMTPFISALQSTDWLCNGELSHDCDGPITDLNSDQYQYMNGKNKHSVRRLDPEYWKTILSCIYVFIVFGFTSFIMVIVHERVPDMQTYPPLPDIFLDSVPRIPWAFAMTEVCGMILCYIWLLVLLLHKHRSILLRRLCSLMGTVFLLRCFTMFVTSLSVPGQHLQCTGKIYGSVWEKLHRAFAIWSGFGMTLTGVHTCGDYMFSGHTVVLTMLNFFVTEYTPRSWNFLHTLSWVLNLFGIFFILAAHEHYSIDVFIAFYITTRLFLYYHTLANTRAYQQSRRARIWFPMFSFFECNVNGTVPNEYCWPFSKPAIMKRLIG
notes: SMSr (SAMD8), human, UniProt Q96LT4, without the first 78 N-terminal residues (SAM domain deleted); also called SMSrΔSAM-V5; SAM-domain truncation mutant; source: HeLa, transfected, in detergent extract; not shown: V5, C-terminal, kept; His6, C-terminal, kept

How the values were obtained:
[1] = biological target: the molecule itself; assay: SDS-resistant oligomers on SDS-PAGE of affinity-purified protein; HeLa cells transfected with one V5(/His6)-tagged construct; anti-V5 immunoprecipitates or Ni-NTA eluates, non-reducing SDS-PAGE, anti-V5 immunoblot; no cross-linker; oligomers mostly lost with 10 mM NEM in lysis or 100 mM DTT
[2] = biological target: the molecule itself; assay: cross-linking; intact HeLa cells (wild-type or SMSr-/-) treated with DSP (0-50 μM, 15 min, RT), lysed with detergent and 10 mM NEM; anti-HA or anti-V5 immunoprecipitation or Ni-NTA, immunoblot against the same tag
[3] = biological target: the molecule itself; assay: cross-linking; yeast cells expressing V5/His6-tagged SMSr treated with DSP (0-50 μM, 15 min), lysed, anti-V5 immunoblot
V5/His6-tagged SMSr = biological target: B1; assay: co-IP; detergent extracts of HeLa cells co-transfected with HA-tagged and V5/His6-tagged constructs; anti-V5 immunoprecipitation, immunoblot with anti-V5 and anti-HA; non-reducing SDS-PAGE; no NEM named; conditions: partners not purified

Row | Binder | stoichiometry N [2] | other results
1 | B1 |  | stoichiometry N [1]: 3 and 6
2 | B2 | 6 and 3 and 2 | 
3 | B3 |  | stoichiometry N [3]: 3 and 6
4 | B4 | 6 and 3 | 
5 | B5 | 3 and 6 | stoichiometry N (V5/His6-tagged SMSr): 3 and 6
6 | B6 | 2 | 
